In patent US20260078196A1 (TJ BIOPHARMA SHANGHAI, published 2026):

Legend:
huMUC16, AA14198-14507 = biological target: T1, huMUC16, AA14198-14507; experiment: binding ELISA on huMUC16 AA14198-14507
T1 chain: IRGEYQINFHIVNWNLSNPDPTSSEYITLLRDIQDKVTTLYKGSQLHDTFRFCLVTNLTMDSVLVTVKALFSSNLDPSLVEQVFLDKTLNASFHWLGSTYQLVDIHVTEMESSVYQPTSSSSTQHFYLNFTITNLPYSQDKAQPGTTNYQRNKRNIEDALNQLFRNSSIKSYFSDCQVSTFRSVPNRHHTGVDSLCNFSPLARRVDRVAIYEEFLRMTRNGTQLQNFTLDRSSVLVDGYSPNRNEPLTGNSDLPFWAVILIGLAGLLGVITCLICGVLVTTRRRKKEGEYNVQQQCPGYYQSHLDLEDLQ

human MUC16 on cells [1] = biological target: T2, human MUC16 on cells (human, UniProt Q8WXI7 1-14507); experiment: flow cytometry (GMFI) on OVCAR3 cells, nM is the unit of the x axis Log10[Ab] (nM)
T2 construct: whole, on cells; also called huMUC16; MUC16 on OVCAR3 and SNU216 cells

huMUC16, AA13789-14451 = biological target: T3, huMUC16, AA13789-14451; experiment: binding ELISA on huMUC16 AA13789-14451
T3 construct: also called MUC16 Antigen (human MUC16 AA13789-14451)
T3 chain: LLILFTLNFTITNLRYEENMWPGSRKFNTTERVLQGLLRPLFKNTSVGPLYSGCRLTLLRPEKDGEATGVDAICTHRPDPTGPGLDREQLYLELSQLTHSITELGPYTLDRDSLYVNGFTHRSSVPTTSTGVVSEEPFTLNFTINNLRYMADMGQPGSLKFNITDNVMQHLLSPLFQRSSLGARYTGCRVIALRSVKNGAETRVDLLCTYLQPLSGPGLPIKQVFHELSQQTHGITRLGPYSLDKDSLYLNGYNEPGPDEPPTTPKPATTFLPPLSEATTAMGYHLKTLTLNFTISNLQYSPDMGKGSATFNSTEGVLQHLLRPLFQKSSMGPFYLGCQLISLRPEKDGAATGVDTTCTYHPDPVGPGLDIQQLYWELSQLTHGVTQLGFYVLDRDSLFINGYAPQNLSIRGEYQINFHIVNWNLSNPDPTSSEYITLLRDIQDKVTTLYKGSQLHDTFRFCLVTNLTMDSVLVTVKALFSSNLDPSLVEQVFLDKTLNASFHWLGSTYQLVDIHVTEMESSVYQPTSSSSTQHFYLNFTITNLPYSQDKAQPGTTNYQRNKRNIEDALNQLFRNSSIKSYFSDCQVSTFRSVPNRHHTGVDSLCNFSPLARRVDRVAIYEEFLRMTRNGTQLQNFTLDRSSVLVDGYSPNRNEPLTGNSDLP

4-1BB on cells = biological target: T4, 4-1BB on cells (human, UniProt Q07011 24-255); experiment: flow cytometry (gMFI) on HEK293-h4-1BB cells
T4 construct: Species is stated as human for section 2.2 as a whole, not for each cell line; also called HEK293 cells expressing 4-1BB; 4-1BB overexpressed HEK293 cell

ROR1 on cells = biological target: T5, ROR1 on cells (UniProt Q01973 30-937); experiment: flow cytometry (gMFI) on A549 cells
T5 construct: whole, on cells; also called ROR1 endogenous expressed tumor cell A549; ROR1-positive tumor cell lines

human MUC16 on cells [2] = biological target: T2, human MUC16 on cells; experiment: flow cytometry (GMFI) on OVCAR3 cells, nM is the unit of the x axis Log10[Ab] (nM); curve without upper plateau
[3] = biological target: T6, HEK293-MUC16 (13810-14507) (human, UniProt Q8WXI7 13810-14507); experiment: flow cytometry (MFI GeoMean) on HEK293-MUC16 (13810-14507) cells, nM is the unit of the x axis Log10[Ab] (nM)
T6 construct: range 13810-14507; also called MUC16 overexpressed HEK293 cells
T6 sequence: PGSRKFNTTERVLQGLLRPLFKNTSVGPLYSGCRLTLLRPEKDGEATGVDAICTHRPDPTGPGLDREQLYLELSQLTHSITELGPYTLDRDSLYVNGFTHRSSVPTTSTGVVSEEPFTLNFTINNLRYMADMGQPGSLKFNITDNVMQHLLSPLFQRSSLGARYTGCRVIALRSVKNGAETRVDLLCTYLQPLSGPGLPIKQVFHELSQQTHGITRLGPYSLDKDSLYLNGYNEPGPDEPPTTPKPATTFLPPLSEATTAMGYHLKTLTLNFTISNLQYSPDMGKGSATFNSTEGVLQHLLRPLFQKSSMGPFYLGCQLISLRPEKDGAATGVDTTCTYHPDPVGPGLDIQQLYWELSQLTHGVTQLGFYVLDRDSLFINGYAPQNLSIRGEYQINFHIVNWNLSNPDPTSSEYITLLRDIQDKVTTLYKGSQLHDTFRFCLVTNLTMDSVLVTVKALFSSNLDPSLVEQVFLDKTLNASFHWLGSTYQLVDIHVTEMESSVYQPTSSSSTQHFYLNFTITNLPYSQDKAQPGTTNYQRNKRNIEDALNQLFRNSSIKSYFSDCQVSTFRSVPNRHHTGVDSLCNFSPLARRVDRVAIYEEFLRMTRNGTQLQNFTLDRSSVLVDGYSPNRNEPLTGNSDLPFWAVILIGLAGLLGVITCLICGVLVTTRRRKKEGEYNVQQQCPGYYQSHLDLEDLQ

human MUC16 on cells [4] = biological target: T2, human MUC16 on cells; experiment: flow cytometry (MFI GeoMean) on SNU216 cells, nM is the unit of the x axis Log10[Ab] (nM)
human MUC16 on cells [5] = biological target: T2, human MUC16 on cells; experiment: flow cytometry (MFI GeoMean) on OVCAR3 cells, nM is the unit of the x axis Log10[Ab] (nM)
human MUC16 = biological target: T7, human MUC16 (human); experiment: binding kinetics, sensorgrams in RU in FIG. 14B, model printed: Kinetics 1:1; form of the MUC16 antigen not given
T7 construct: also called MUC16 antigen of the kinetic assay

T4 sequence (Q07011 24-255): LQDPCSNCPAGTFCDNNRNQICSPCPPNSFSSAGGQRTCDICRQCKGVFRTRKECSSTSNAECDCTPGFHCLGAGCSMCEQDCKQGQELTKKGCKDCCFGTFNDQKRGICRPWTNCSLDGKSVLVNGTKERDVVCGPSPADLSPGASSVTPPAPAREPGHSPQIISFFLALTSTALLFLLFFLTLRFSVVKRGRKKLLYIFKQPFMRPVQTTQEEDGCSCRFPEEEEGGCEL

B1: D46 (antibody, V domains shown)
VH: QVQLVQSGAEVKKPGSSVKVSCKASGGTFSSYAISWVRQAPGQGLEWMGRIIPIFGIANYAQKFQGRVTITADKSTSTAYMELSSLRSEDTAVYYCAITGDYDILTGSYYYGMDVWGQGTTVTVSS
VL: NIQLTQSPSSLSASVGDRVTITCRASQGIRNDLGWYQQKPGKAPKLLIYAASSLQSGVPSRFSGSGSGTDFTLTISSLQPEDFATYYCLQDYNYPFTFGPGTKVDIK
notes: Anti-MUC16 mAb
- binding result (huMUC16, AA14198-14507): no binding (tested: 100 nM)
- EC50 (human MUC16 on cells [1]): 0.347 nM
- binding result (huMUC16, AA13789-14451): binds

B2: 4B-10C9 (second entry of Table 6A, with 9C9 VH and 9C9 VL) (bispecific antibody, human IgG1, kappa)
heavy: not shown
light: DIVLTQSPAITAASLGQKVTITCSASSSVTYMHWYQQKSGTSPKLWIYDISKLASGVPARFSGSGPGTSYSLTISTMEAEDAAIYYCQQWNYPLMTFGGGTKLEIKRTVAAPSVFIFPPSDEQLKSGTASVVCLLNNFYPREAKVQWKVDNALQSGNSQESVTEQDSKDSTYSLSSTLTLSKADYEKHKVYACEVTHQGLSSPVTKSFNRGEC
notes: Label 4B-10C9 is printed twice; this entry holds the 9C9 variable domains and is probably meant as 4B-9C9; also called 10C9 IgG x 4-1BB VHH (label as printed)
- EC50 (read off the curve) (4-1BB on cells): ~0.3 nM
- EC50 (read off the curve) (ROR1 on cells): ~0.2 nM

B3: 4B-8F2 (bispecific antibody, human IgG1, kappa)
heavy: not shown
light: DVVMTQTPLTLSVTIGQPASISCKSSQSLLHSNGKTYLNWLLQRPGQSPNLLIYLVSKLESGVPDRFSGSGSGTDFTLKISRVEAEDLGVYYCLQATYFPYTFGSGTKLEIKRTVAAPSVFIFPPSDEQLKSGTASVVCLLNNFYPREAKVQWKVDNALQSGNSQESVTEQDSKDSTYSLSSTLTLSKADYEKHKVYACEVTHQGLSSPVTKSFNRGEC
notes: Chimeric ROR1 x 4-1BB BsAb; also called 8F2 IgG x 4-1BB VHH
- EC50 (read off the curve) (4-1BB on cells): ~0.2 nM
- EC50 (read off the curve) (ROR1 on cells): ~0.03 nM

B4: 4B-10C9 (bispecific antibody, human IgG1, kappa)
heavy: not shown
light: DVVMTQTPLTLSVAIGQPASISCKSSQSLLHINGKTYLNWLLQRPGQSPKLLIYLVSKLESGVPDRFSGSGSGTDFTLKISRVEAEDLGVYYCLQATHFPYTFGSGTKLEIKRTVAAPSVFIFPPSDEQLKSGTASVVCLLNNFYPREAKVQWKVDNALQSGNSQESVTEQDSKDSTYSLSSTLTLSKADYEKHKVYACEVTHQGLSSPVTKSFNRGEC
notes: also called 10C9 IgG x 4-1BB VHH
- EC50 (read off the curve) (4-1BB on cells): ~0.3 nM
- EC50 (read off the curve) (ROR1 on cells): ~0.3 nM

B5: D1 (antibody, V domains shown)
VH: QVQLVQSGAEVKKPGSSVKVSCKASGGTFSSYAISWVRQAPGQGLEWMGGIIPIFGTANYAQKFQGRVTITADESTSTAYMELSSLRSEDTAVYYCARAPMVRGVPPTPYYYYYGMDVWGQGTTVTVSS
VL: EIVLTQSPATLSLSPGERATLSCRASQSVSNYLAWYQQKPGQAPRLLIYDASNRATGIPARFSGSGSGTDFTLTISSLEPEDFAVYYCQQRSNWPSFGQGTKVEIK
notes: Anti-MUC16 mAb
- binding result (huMUC16, AA14198-14507): no binding (tested: 100 nM)
- binding result (huMUC16, AA13789-14451): binds
- EC50 (human MUC16 on cells [2]): 27.6 nM

B6: D20 (antibody, V domains shown)
VH: QVQLVQSGAEVKKPGSSVKVSCKASGGTFSSYAISWVRQAPGQGLEWMGGIIPIFGTANYAQKFQGRVTITADESTSTAYMELSSLRSEDTAVYYCASTPELLWFGELGGAYYFDYWGQGTLVTVSS
VL: NIQLTQSPSTLSASVGDRVTITCRASESISSWLAWYQQKPGEAPKLLIYKASTLENGVPSRFSGSGSETEFTLTISSLQPDDFATYYCQQYRSHWSSTFGPGTKVDIK
notes: Anti-MUC16 mAb
- binding result (huMUC16, AA14198-14507): no binding (tested: 100 nM)
- binding result (huMUC16, AA13789-14451): binds
- EC50 (human MUC16 on cells [2]): 14.1 nM

B7: D30 (antibody, V domains shown)
VH: QVQLVQSGAEVKKPGSSVKVSCKASGGTFSSYAISWVRQAPGQGLEWMGGIIPIFGTANYAQKFQGRVTITADESTSTAYMELSSLRSEDTAVYYCARANFNIYYYYYGMDVWGQGTLVTVSS
VL: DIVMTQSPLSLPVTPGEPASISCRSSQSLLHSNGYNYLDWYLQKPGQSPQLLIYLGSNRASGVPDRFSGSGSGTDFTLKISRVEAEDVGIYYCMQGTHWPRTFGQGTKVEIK
notes: Anti-MUC16 mAb
- binding result (huMUC16, AA14198-14507): no binding (tested: 100 nM)
- EC50 (human MUC16 on cells [1]): 0.389 nM
- binding result (huMUC16, AA13789-14451): binds
- EC50 [3]: 0.277 nM
- EC50 (human MUC16 on cells [4]): 0.125 nM
- EC50 (human MUC16 on cells [5]): 0.38 nM

B8: 4B-3C5 (bispecific antibody, human IgG1, kappa)
heavy: not shown
light: DIKMTQSPSSMYASLGERVSITCRASQDIYSYLSWFQQKPGKSPKTLIYRANRLVDGVPSRFSGSGSGQDYSLTISSLEYEDMGIYYCLQYDEFPYTFGGGTKLEIKRTVAAPSVFIFPPSDEQLKSGTASVVCLLNNFYPREAKVQWKVDNALQSGNSQESVTEQDSKDSTYSLSSTLTLSKADYEKHKVYACEVTHQGLSSPVTKSFNRGEC
notes: Chimeric ROR1 x 4-1BB BsAb; also called 3C5 IgG x 4-1BB VHH
- EC50 (read off the curve) (4-1BB on cells): ~0.1 nM
- EC50 (read off the curve) (ROR1 on cells): ~0.08 nM

B9: C25 (antibody, V domains shown)
VH: EVQLLESGAEVKKPGSSVKVSCKASGGTFSSYAISWVRQAPGQGLEWMGGIIPIFGTANYAQKFQGRVTITADESTSTAYMELSSLRSEDTAVYYCARDSRKYYYDSSGPALWGFDAFDIWGQGTMVTVSS
VL: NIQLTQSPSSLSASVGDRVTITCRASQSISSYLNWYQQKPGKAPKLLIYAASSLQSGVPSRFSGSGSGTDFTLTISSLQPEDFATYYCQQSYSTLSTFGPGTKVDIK
notes: Anti-MUC16 mAb from a human naive Fab phage library; also called MUC16-C25
- binding result (huMUC16, AA14198-14507): no binding (tested: 100 nM)
- EC50 (human MUC16 on cells [1]): 0.179 nM
- Kd (human MUC16): 26.9 nM
- koff (human MUC16): 0.00697 s⁻¹
- kon (human MUC16): 260000 M⁻¹ s⁻¹
- binding result (huMUC16, AA13789-14451): binds
- EC50 [3]: 0.156 nM
- EC50 (human MUC16 on cells [4]): 0.0978 nM
- EC50 (human MUC16 on cells [5]): 0.242 nM

B10: 4-1BB VHH (VHH)
VHH: QVQLQESGGGLVQPGGSLRLSCAASGYTYSSNCMGWFRQAPGKGLEGVAVICTGGGSPSYADSVKGRFTISRDNAKNTLYLQMNSLRAEDTAVYYCAADLLRAGTPLSSYEFNYWGQGTLVTVSS
- EC50 (read off the curve) (4-1BB on cells): ~0.2 nM

B11: C73 (antibody, V domains shown)
VH: QVQLMQSGAEVKKPGSSVKVSCKASGGTFSSYAISWVRQAPGQGLEWMGGIIPIFGTANYAQKFQGRVTITADESTSTAYMELSSLRSEDTAVYYCAREPPLSNYGDYATEQYYYGMDVWGQGTLVTVSS
VL: not shown
notes: Anti-MUC16 mAb
- binding result (huMUC16, AA14198-14507): no binding (tested: 100 nM)
- binding result (huMUC16, AA13789-14451): binds
- EC50 (human MUC16 on cells [2]): 50.1 nM
